# Measurements: the supplement of paper PMC7877785
# ± gives the uncertainty stated by the source.
# Assay: self-splicing fitness, log relative to wild type (ln ratio); higher = more splicing; Tetrahymena group I intron in knt gene, E. coli kanamycin selection, DiMSum; sequences stand for … in CUCUCU…GGAGGGAAAAGUUAUCAGGCAUGCACCUGGUAGCUAGUCUUUAAACCAAUAGAUUGCAUCGGUUUAAAAGGCAAGACCGUCAAAUUGCGGGAAAGGGGUCAACAGCCGUUCAGUACCAAGUCUCAGGGGAAACUUUGAGAUGGCCUUGCAAAGGGUAUGGUAAUAAGCUGACGGACAUGGUCCUAACCACGCAGCCAAGUCCUAAGUCAACAGAUCUUCUGUUGAUAUGGAUGCAGUUCACAGACUAAAUGUCGGUCGGGGAAGAUGUAUUCUUCUCAUAAGAUAUAGUCGGACCUCUCCUUAAUGGGAGCUAGCGGAUGAAGUGAUGCAACACUGGAGCCGCUGGGAACUAAUUUGUAUGCGAAAGUAUAUUGAUUAGUUUUGGAGUACUCGUGGUCG
# Procedure, shortened: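 Pooled colonies went to amplicon sequencing on an Illumina HiSeq 2500 after six replicate transformations. The plates were LB agar with 100 μg/mL carbenicillin, 50 μM IPTG and 0.2% rhamnose, with or without 25 μg/mL kanamycin, incubated overnight at 37°C or 30°C. The E. coli BL21(DE3) library had all eight P1ex-region intron nucleotides randomised, the intron placed in the knt kanamycin-resistance gene on pET-22b(+). DiMSum fitness is the error-weighted combination of replicate fold changes, kanamycin against none, normalised to wild type.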
Sequence,self-splicing fitness (ln) (30 °C),self-splicing fitness (ln) (37 °C)
UACUAGCAAUAUUACGUGCU,-3.85 ± 0.32,-3.06 ± 0.27
UACUAGCAAUAUUACGUUCG,-0.992 ± 0.077,-0.484 ± 0.094
UACUAGCAAUAUUACGUUCU,-2.47 ± 0.25,-1.03 ± 0.19
UACUAGCAAUAUUACGUUUC,-4.15 ± 0.33,-2.53 ± 0.23
UACUAGCAAUAUUACGUUUG,-3.28 ± 0.18,-2.21 ± 0.29
UAGAAGCAAUAUUACGAAGG,-2.9 ± 0.17,-1.82 ± 0.39
UAGAAGCAAUAUUACGACGA,-0.144 ± 0.1,-0.0918 ± 0.1
UAGAAGCAAUAUUACGACUG,-0.418 ± 0.083,-0.0265 ± 0.1
UAGAAGCAAUAUUACGCCUC,-2.88 ± 0.5,–
UAGAAGCAAUAUUACGCGGG,-2.4 ± 0.14,-1.1 ± 0.13
UAGAAGCAAUAUUACGCGUU,-2.89 ± 0.15,-1.41 ± 0.13
UAGAAGCAAUAUUACGGGAA,-1.96 ± 0.25,-2.3 ± 0.29
UAGAAGCAAUAUUACGGGAU,-4.15 ± 0.23,-2.36 ± 0.18
UAGAAGCAAUAUUACGGGCC,–,-1.9 ± 0.31
UAGAAGCAAUAUUACGGGUG,-0.989 ± 0.057,-0.365 ± 0.078
UAGAAGCAAUAUUACGGUCU,-0.542 ± 0.11,0.318 ± 0.11
UAGAAGCAAUAUUACGUAAU,-3.43 ± 0.22,-1.39 ± 0.18
UAGAAGCAAUAUUACGUAGA,-2.4 ± 0.095,-1.79 ± 0.11
UAGAAGCAAUAUUACGUCUC,-1.21 ± 0.11,-0.794 ± 0.1
UAGAAGCAAUAUUACGUGCU,-2.8 ± 0.21,-2.42 ± 0.24
UAGAAGCAAUAUUACGUUAC,-3.73 ± 0.32,-2.79 ± 0.27
UAGAAGCAAUAUUACGUUGC,-4.3 ± 0.27,-2.82 ± 0.24
UAGCAGCAAUAUUACGAAAA,-2.56 ± 0.25,-1.27 ± 0.2
UAGCAGCAAUAUUACGAGAU,-3.24 ± 0.2,-3.18 ± 0.28

Sequence,self-splicing fitness (ln) (30 °C),self-splicing fitness (ln) (37 °C)
UAGCAGCAAUAUUACGAUUC,-3.06 ± 0.14,-2.94 ± 0.15
UAGCAGCAAUAUUACGCAAA,-1.89 ± 0.18,-1.76 ± 0.17
UAGCAGCAAUAUUACGCAAG,-3.04 ± 0.23,-1.76 ± 0.21
UAGCAGCAAUAUUACGCACU,-0.419 ± 0.086,0.238 ± 0.1
UAGCAGCAAUAUUACGCAUC,-4.15 ± 0.47,-3.39 ± 0.26
UAGCAGCAAUAUUACGCCAC,-3.82 ± 0.39,-1.45 ± 0.3
UAGCAGCAAUAUUACGCCCU,-0.738 ± 0.087,-0.863 ± 0.11
UAGCAGCAAUAUUACGCCUA,-0.551 ± 0.13,0.446 ± 0.15
UAGCAGCAAUAUUACGCGAU,-2.94 ± 0.2,-3.07 ± 0.35
UAGCAGCAAUAUUACGCGCA,-0.588 ± 0.11,-0.487 ± 0.095
UAGCAGCAAUAUUACGCGGU,-4.14 ± 0.22,-2.49 ± 0.17
UAGCAGCAAUAUUACGCGUG,-1.5 ± 0.076,-0.257 ± 0.1
UAGCAGCAAUAUUACGCGUU,-2.72 ± 0.1,-1.24 ± 0.11
UAGCAGCAAUAUUACGGAUG,-1.19 ± 0.073,-0.912 ± 0.079
UAGCAGCAAUAUUACGGCUA,-2.89 ± 0.39,-1.33 ± 0.28
UAGCAGCAAUAUUACGGGCU,-3.39 ± 0.15,-1.08 ± 0.12
UAGCAGCAAUAUUACGUCAU,-3.68 ± 0.17,-1.52 ± 0.13
UAGCAGCAAUAUUACGUGAA,-1.71 ± 0.16,-0.671 ± 0.18
UAGCAGCAAUAUUACGUGAU,-3.42 ± 0.13,-1.09 ± 0.11
UAGCAGCAAUAUUACGUGUA,-1.17 ± 0.062,-0.62 ± 0.077
UAGCAGCAAUAUUACGUGUG,-1.63 ± 0.064,-0.7 ± 0.08
UAGCAGCAAUAUUACGUGUU,-3.4 ± 0.1,-2.86 ± 0.15
UAGCAGCAAUAUUACGUUCG,-0.326 ± 0.069,0.165 ± 0.091
UAGGAGCAAUAUUACGACUA,-0.46 ± 0.13,-1.53 ± 0.15
